Residue numbers refer to the chain shown, from its start. In names and notes the source's numbering stands. Each block holds one binder with its values, some of them ahead of it.
Key:
[1] = target: T1, human FcγRIIaH extracellular domain, His-tagged (human, UniProt P12318 34-217); assay: SPR (Biacore), 25C, FcgR bound per antibody captured
T1 construct: also called human FcgRIIaH; FcγRIIa type H
T1 sequence: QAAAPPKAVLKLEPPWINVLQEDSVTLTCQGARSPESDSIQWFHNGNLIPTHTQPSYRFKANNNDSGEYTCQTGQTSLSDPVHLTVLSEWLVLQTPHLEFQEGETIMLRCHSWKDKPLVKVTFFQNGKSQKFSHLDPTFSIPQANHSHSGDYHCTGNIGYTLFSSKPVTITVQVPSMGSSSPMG

[2] = target: T2, human FcγRIIb extracellular domain, His-tagged (human, UniProt P31994 43-217); assay: as above
T2 construct: also called human FcgRIIb
T2 sequence: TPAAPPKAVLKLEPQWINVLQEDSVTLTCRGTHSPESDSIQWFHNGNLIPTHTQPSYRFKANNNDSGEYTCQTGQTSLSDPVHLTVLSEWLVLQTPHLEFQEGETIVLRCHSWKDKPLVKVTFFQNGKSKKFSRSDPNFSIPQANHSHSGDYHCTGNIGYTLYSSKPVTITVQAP

[3] = target: T3, human FcγRIIIaV extracellular domain, His-tagged (human, UniProt P08637 17-208); assay: as above
T3 construct: also called human FcgRIIIaV
T3 sequence (P08637 17-208 F176V): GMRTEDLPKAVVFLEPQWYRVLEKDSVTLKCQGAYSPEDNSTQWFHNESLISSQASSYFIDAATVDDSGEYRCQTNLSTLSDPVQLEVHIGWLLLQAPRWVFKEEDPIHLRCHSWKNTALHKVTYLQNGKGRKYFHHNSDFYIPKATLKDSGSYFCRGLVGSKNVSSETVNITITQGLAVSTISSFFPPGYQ

[4] = target: T4, cynomolgus monkey FcγRIIIaS extracellular domain with C-terminal His-tag (cynomolgus monkey, UniProt A3RFZ7 21-206 (rhesus entry)); assay: SPR (BIACORE); KD of SG1 / KD of variant
T4 construct: also called cyno FcgRIIIaS; cynoFcγRIIIaS; not shown: His-tag added to the C-terminus
Protocol: The kinetic analysis of interactions between these antibodies and FcγR was carried out using BIACORE® T200 or BIACORE® 4000 (GE Healthcare). HBS-EP+ (GE Healthcare) was used as the running buffer, and the measurement temperature was set to 25° C. […] After the measurement, the antibody captured on the chip was washed off by allowing reaction with 10 mM glycine-HCl, pH1.5 and 25 mM NaOH so that the chip was regenerated and used repeatedly. The sensorgrams obtained as measurement results were analyzed by the 1:1 Langmuir binding model using the BIACORE® Evaluation Software to calculate the binding rate constant ka (L/mol/s) and dissociation rate constant kd (1/s), and the dissociation constant KD (mol/L) was calculated from these values. […] Regarding such interactions, KD values were calculated using the following 1:1 binding model described in BIACORE® T100 Software Handbook BR1006-48 Edition AE.
Target sequence in this assay (A3RFZ7 21-206): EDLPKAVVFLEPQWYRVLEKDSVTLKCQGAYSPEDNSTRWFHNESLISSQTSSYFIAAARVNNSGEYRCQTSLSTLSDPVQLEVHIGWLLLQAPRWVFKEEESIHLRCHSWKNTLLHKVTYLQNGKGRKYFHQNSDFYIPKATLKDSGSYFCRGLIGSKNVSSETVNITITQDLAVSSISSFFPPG

[5] = target: T5, cynomolgus monkey FcγRIIa3 extracellular domain with C-terminal His-tag (cynomolgus monkey); assay: SPR (BIACORE), antibody captured, FcgR analyte
T5 construct: also called cyno FcgRIIa3; cynoFcγRIIa3; not shown: His-tag added to the C-terminus
T5 chain: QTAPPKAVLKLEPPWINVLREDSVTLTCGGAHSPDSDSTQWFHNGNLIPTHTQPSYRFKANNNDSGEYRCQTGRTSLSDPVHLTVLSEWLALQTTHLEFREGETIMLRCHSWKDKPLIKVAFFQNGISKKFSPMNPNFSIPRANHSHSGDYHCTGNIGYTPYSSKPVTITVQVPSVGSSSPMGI

[6] = target: T4, cynomolgus monkey FcγRIIIaS …; assay: SPR (BIACORE), antibody captured, FcgR analyte
T4 sequence (A3RFZ7 21-206): as the sequence (A3RFZ7 21-206) above

[7] = target: T6, human FcγRIIaH extracellular domain with C-terminal His-tag (human, UniProt P12318 34-217); assay: SPR (BIACORE), antibody captured, FcgR analyte
T6 construct: also called human FcgRIIaH; FcγRIIa type H; not shown: His-tag added to the C-terminus
T6 sequence: T1 sequence

[8] = target: T7, cynomolgus monkey FcγRIIa3 extracellular domain with C-terminal His-tag (cynomolgus monkey); assay: SPR Biacore, antibody captured, FcgR analyte
T7 construct: also called cyno FcgRIIa3; cynoFcγRIIa3; not shown: His-tag added to C-terminus
T7 chain: T5 chain

[9] = target: T8, cynomolgus monkey FcγRIIb extracellular domain with C-terminal His-tag (cynomolgus monkey); assay: SPR Biacore, antibody captured, FcgR analyte
T8 construct: also called cyno FcgRIIb; cynoFcγRIIb; not shown: His-tag added to C-terminus
T8 chain: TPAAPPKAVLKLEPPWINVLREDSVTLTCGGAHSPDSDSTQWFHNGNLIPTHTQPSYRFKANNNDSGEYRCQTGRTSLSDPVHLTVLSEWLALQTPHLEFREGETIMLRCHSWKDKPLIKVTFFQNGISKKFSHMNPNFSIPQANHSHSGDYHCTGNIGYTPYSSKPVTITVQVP

[10] = target: T9, cynomolgus monkey FcγRIIIaS extracellular domain with C-terminal His-tag (cynomolgus monkey, UniProt A3RFZ7 21-206 (rhesus entry)); assay: SPR Biacore, antibody captured, FcgR analyte
T9 construct: also called cyno FcgRIIIaS; cynoFcγRIIIaS; not shown: His-tag added to C-terminus

[11] = target: T10, cynomolgus monkey FcγRIIa2 extracellular domain with C-terminal His-tag (cynomolgus monkey); assay: SPR Biacore, antibody captured, FcgR analyte
T10 construct: also called cyno FcgRIIa2; cynoFcγRIIa2; not shown: His-tag added to C-terminus
T10 chain: T5 chain with I127K, K130N, P133H, R142Q

[12] = target: T11, human FcγRIIaR extracellular domain with C-terminal His-tag (human, UniProt P12318 34-217); assay: SPR (BIACORE), antibody captured, FcgR analyte
T11 construct: also called human FcgRIIaR; FcγRIIa type R; not shown: His-tag added to the C-terminus
T11 chain: T1 sequence with H134R

[13] = target: T12, human FcγRIIb extracellular domain with C-terminal His-tag (human, UniProt P31994 43-217); assay: SPR Biacore, antibody captured, FcgR analyte
T12 construct: also called human FcgRIIb; not shown: His-tag added to C-terminus
T12 sequence: T2 sequence

B5: M103205H795-MY197/M103202L889-SK1 (antibody, human IgG1, kappa, name in EU numbering)
heavy: QVTLKESGPVLVKPTETLTLTCTVSGIDLSHDDISWVRQAPGKGLEWVGIISYAGSTYYASWAKGRLTISKDTSKNQVVLTMTNMDPVDTATYYCARGVPAYSHGGDLWGQGTLVTVSSASTKGPSVFPLAPSSKSTSGGTAALGCLVKDYFPEPVTVSWNSGALTSGVHTFPAVLQSSGLYSLSSVVTVPSSSLGTQTYICNVNHKPSNTKVDKKVEPKSCDKTHTCPPCPAPELLNGPSVFLFPPKPKDTLMISRTPEVTCVVVDVSDEDPEVKFNWYVDGVEVHNAKTKPREEQYNSTYRVVSVLTVLHQDWLNGKEYKCKVSNKALPKPIEKTISKAKGQPREPQVYTLPPSREEMTKNQVSLTCLVKGFYPSDIAVEWESNGQPENNYKTTPMVLDSDGSFFLYSKLTVDKSRWQQGNVFSCSVMHEALHNHYTQKSLSLSP
light: DIVMTQSPATLSLSPGERATLSCTSSQSVYHANWLSWFQQKPGQPPKLLIYWASTLAYGVPSRFSGSGSGTDFTLTISSLQPEDAATYYCAGGYGGGRYAFGQGTKVEIKRTVAAPSVFIFPPSDEQLKSGTASVVCLLNNFYPREAKVQWKVDNALQSGNSQESVTEQDSKDSTYSLSSTLTLSKADYEKHKVYACEVTHQGLSSPVTKSFNRGEC
notes: Fc variant of MS1032LO06-SG1; positions in EU numbering
- KD fold (SG1 = 1) [4]: 0.17 fold
- Kd [5]: 1400 nM
- Kd [6]: 2100 nM
- Kd [7]: 160 nM

B6: M103205H795-MY204/M103202L889-SK1 (antibody, human IgG1, kappa, name in EU numbering)
heavy: B5 heavy with S241V, D270E, Q297L, M398P
light: B5 light
notes: substitutions in EU numbering, introduced into M103205H795-SG1
- KD fold (SG1 = 1) [8]: 3.3 fold
- KD fold (SG1 = 1) [9]: 2.2 fold
- KD fold (SG1 = 1) [10]: 0.1 fold

B7: M103205H795-MY207/M103202L889-SK1 (antibody, human IgG1, kappa, name in EU numbering)
heavy: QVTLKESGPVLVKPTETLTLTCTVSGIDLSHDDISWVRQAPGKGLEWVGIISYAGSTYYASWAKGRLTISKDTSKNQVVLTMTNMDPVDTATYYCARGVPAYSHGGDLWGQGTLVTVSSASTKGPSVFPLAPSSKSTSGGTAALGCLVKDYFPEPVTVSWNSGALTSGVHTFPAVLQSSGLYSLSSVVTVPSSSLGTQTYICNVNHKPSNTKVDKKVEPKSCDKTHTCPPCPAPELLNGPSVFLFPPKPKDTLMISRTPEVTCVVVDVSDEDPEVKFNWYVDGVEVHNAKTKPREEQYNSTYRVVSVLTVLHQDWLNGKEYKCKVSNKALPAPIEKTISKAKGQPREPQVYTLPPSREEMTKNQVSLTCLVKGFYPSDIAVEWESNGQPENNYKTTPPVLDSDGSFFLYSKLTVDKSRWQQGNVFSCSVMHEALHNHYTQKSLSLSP
light: B5 light
notes: as for B6
- KD fold (SG1 = 1) [11]: 3.6 fold
- KD fold (SG1 = 1) [10]: 0.09 fold

B9: M103205H795-MY202/M103202L889-SK1 (antibody, human IgG1, kappa, name in EU numbering)
heavy: B5 heavy with S241V, M398P
light: B5 light
notes: as for B5
- Kd [5]: 2200 nM
- Kd [6]: 4000 nM
- Kd [7]: 1200 nM

Continued, values first:

- Binding to human FcgRs (parent B3 = 100) [1]: 65
- Binding to human FcgRs (parent B3 = 100) [2]: 72
- Binding to human FcgRs (parent B3 = 100) [3]: -1
B1: GpH7-B3 N325F / GpL16-k0 (antibody, human IgG1, kappa)
heavy: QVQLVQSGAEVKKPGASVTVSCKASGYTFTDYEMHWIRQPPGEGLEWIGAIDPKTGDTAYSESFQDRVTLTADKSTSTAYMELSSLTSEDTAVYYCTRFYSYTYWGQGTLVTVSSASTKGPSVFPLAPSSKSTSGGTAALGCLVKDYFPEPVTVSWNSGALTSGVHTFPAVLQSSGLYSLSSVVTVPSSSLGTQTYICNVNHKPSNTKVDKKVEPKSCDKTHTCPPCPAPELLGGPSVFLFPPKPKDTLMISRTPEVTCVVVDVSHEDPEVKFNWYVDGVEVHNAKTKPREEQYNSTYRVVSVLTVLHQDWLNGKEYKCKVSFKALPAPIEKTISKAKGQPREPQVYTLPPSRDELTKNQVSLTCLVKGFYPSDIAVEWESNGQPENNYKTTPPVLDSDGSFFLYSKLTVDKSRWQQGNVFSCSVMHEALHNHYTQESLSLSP
light: DIVMTQSPLSLPVTPGEPASISCQASESLVHSNRNTYLHWYLQKPGQSPQLLIYKVSNRFSGVPDRFSGSGSGTDFTLKISRVEAEDVGVYYCSQNTHVPPTFGQGTKVEIERTVAAPSVFIFPPSDEQLKSGTASVVCLLNNFYPREAKVQWKVDNALQSGNSQESVTEQDSKDSTYSLSSTLTLSKADYEKHKVYACEVTHQGLSSPVTKSFNRGEC
notes: also called B3 variant N325F

- Binding to human FcgRs (parent B3 = 100) [2]: 88
- Binding to human FcgRs (parent B3 = 100) [3]: 2
B2: GpH7-B3 V266F / GpL16-k0 (antibody, human IgG1, kappa)
heavy: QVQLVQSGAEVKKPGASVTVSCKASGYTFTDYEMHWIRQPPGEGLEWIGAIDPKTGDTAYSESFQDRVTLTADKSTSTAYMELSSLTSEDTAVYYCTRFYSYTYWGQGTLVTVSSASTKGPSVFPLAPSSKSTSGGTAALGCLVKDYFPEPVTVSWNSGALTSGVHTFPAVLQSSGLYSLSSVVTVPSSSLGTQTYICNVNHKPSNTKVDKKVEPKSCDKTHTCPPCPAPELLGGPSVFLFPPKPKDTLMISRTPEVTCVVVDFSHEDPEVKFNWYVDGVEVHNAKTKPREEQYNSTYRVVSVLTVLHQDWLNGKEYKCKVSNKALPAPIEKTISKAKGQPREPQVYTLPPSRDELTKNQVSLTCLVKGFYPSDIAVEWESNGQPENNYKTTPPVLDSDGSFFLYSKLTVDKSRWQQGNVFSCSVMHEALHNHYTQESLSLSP
light: B1 light
notes: also called B3 variant V266F

- Binding to human FcgRs (parent B3 = 100) [1]: 49
- Binding to human FcgRs (parent B3 = 100) [2]: 61
- Binding to human FcgRs (parent B3 = 100) [3]: -1
B3: GpH7-B3 S239P / GpL16-k0 (antibody, human IgG1, kappa)
heavy: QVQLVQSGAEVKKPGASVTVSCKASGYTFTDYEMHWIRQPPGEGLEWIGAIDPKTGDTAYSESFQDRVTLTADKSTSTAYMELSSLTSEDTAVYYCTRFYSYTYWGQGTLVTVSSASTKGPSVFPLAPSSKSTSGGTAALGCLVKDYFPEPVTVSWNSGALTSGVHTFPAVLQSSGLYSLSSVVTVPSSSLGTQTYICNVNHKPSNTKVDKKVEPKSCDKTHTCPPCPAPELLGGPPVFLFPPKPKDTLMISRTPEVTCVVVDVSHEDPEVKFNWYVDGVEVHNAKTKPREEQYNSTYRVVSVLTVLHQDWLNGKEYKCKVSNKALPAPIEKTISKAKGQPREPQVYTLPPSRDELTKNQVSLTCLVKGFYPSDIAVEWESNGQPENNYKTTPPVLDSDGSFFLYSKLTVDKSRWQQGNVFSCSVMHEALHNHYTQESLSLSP
light: B1 light
notes: also called B3 variant S239P

- Binding to human FcgRs (parent B3 = 100) [1]: 93
- Binding to human FcgRs (parent B3 = 100) [2]: 114
- Binding to human FcgRs (parent B3 = 100) [3]: 3
B4: GpH7-B3 P238Y / GpL16-k0 (antibody, human IgG1, kappa)
heavy: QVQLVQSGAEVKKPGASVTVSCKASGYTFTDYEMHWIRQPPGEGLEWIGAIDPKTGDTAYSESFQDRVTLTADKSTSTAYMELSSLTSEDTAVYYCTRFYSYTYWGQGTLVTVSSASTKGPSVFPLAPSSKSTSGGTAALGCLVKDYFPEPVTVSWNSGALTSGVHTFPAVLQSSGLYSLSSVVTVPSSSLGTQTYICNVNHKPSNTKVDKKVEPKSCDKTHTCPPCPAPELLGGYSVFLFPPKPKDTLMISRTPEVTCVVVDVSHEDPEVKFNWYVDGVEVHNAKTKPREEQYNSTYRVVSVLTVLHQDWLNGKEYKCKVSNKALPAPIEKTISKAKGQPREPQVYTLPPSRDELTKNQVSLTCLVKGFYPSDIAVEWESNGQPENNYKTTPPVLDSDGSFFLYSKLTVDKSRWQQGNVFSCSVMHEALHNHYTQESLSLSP
light: B1 light
notes: also called B3 variant P238Y

- Kd [5]: 6400 nM
- Kd [6]: 11000 nM
- Kd [7]: 1600 nM
- Kd [12]: 19 nM
B8: M103205H795-MY434/M103202L889-SK1 (antibody, human IgG1, kappa, name in EU numbering)
heavy: B5 heavy with L237W, M398P
light: B5 light
notes: as for B5

- KD fold (SG1 = 1) [11]: 3.4 fold
- KD fold (SG1 = 1) [10]: 0.13 fold
B10: M103205H795-MY208/M103202L889-SK1 (antibody, human IgG1, kappa, name in EU numbering)
heavy: B5 heavy with Q297L, K332A, M398P
light: B5 light
notes: as for B6

- KD fold (SG1 = 1) [8]: 1.5 fold
- KD fold (SG1 = 1) [9]: 1.5 fold
- KD fold (SG1 = 1) [10]: 0.03 fold
- KD fold (SG1 = 1) [13]: 0.5 fold
B11: M103205H795-MY288/M103202L889-SK1 (antibody, human IgG1, kappa, name in EU numbering)
heavy: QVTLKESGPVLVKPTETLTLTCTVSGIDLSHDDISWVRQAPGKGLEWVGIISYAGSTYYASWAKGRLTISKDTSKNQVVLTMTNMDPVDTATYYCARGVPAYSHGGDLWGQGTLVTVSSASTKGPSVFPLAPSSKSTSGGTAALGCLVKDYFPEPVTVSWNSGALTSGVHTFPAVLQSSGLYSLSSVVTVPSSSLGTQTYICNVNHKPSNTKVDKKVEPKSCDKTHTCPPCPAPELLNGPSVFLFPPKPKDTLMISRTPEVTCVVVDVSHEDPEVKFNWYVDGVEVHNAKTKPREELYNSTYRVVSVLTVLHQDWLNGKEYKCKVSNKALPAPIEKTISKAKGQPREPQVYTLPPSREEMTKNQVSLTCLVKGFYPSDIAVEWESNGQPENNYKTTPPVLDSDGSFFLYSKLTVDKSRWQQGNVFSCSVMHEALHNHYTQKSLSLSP
light: B5 light
notes: as for B6

From patent US20250076311A1 (Chugai, published 2025)
